The values that follow come from US20200277397A1 (Genmab, published 2020).

Like-named read-outs stand apart in the source and are kept apart here.

Assay [1] addresses T1, full length cynomolgus monkey 5T4 (cynomolgus monkey, UniProt Q4R8Y9 35-420).
T1 construct: Uniprot Q4R8Y9; also called cynomolgus monkey 5T4 on HEK-293 cells
T1 sequence: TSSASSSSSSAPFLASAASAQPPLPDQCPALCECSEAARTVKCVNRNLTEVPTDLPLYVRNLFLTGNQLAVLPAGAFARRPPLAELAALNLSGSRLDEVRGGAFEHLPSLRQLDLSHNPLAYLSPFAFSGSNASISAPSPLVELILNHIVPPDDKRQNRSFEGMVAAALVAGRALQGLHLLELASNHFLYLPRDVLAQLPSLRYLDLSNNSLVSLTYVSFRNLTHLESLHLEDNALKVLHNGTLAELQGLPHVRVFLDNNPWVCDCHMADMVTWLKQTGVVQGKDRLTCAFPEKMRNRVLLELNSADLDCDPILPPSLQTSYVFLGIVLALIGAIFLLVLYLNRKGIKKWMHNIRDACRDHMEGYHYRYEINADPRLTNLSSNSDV
Put plainly: flow cytometry, HEK-293 cells transfected with cynomolgus monkey 5T4 (right panel), PE anti-human IgG F(ab')2, MFI PE.

The target of assay [2] is T2, full length human 5T4 (human, UniProt Q13641 32-420).
T2 construct: Uniprot Q13641; Used here also for endogenous 5T4 on the human tumour cell lines
T2 sequence: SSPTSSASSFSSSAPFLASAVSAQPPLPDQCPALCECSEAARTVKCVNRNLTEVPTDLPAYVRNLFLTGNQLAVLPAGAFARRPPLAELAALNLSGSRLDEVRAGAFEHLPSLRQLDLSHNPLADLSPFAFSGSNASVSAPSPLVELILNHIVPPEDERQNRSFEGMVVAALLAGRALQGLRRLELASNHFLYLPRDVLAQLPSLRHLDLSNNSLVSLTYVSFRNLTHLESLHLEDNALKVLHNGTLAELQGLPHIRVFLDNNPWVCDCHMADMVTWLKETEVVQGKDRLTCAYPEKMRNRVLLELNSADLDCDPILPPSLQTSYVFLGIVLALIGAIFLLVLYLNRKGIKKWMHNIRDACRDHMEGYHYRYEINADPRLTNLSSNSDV
Put plainly: flow cytometry, HeLa cells, PE anti-human IgG F(ab')2, MFI PE.

Assay [3] addresses T1, full length cynomolgus monkey 5T4. Put plainly: flow cytometry, HEK-293 cells transfected with cynomolgus monkey 5T4 (right panel), PE anti-human IgG F(ab')2, MFI PE. The source holds these as a separate data set.
Assay [4] addresses T2, full length human 5T4. In words: flow cytometry, HeLa cells, PE anti-human IgG F(ab')2, MFI PE. The source holds these as a separate data set. (In general: A flow cytometer gives signals particle by particle.)

B1: bsIgG1-huCD3-H101G-FEALx5T4-A3-FEAR (bispecific antibody)
heavy 1: not shown
VL 1: not shown
heavy 2: EVQLVESGGGLVQPKGSLKLSCAASGFTFNTYAMNWVRQAPGKGLEWVARIRSKSNNYATYYADSVKDRFTISRDDSQSMLYLQMNNLKTEDTAMYYCVRQWDYDVRAMNYWGQGTSVTVSSASTKGPSVFPLAPSSKSTSGGTAALGCLVKDYFPEPVTVSWNSGALTSGVHTFPAVLQSSGLYSLSSVVTVPSSSLGTQTYICNVNHKPSNTKVDKRVEPKSCDKTHTCPPCPAPEFEGGPSVFLFPPKPKDTLMISRTPEVTCVVVAVSHEDPEVKFNWYVDGVEVHNAKTKPREEQYNSTYRVVSVLTVLHQDWLNGKEYKCKVSNKALPAPIEKTISKAKGQPREPQVYTLPPSREEMTKNQVSLTCLVKGFYPSDIAVEWESNGQPENNYKTTPPVLDSDGSFFLYSRLTVDKSRWQQGNVFSCSVMHEALHNHYTQKSLSLSPGK
VL 2: DIVMTQSHIFMSTSVGDRVSITCKASQDVDTAVAWYQQKPGQSPKLLIYWASTRLTGVPDRFTGSGSGTDFTLTISNVQSEDLADYFCQQYSSYPYTFGGGTKLEIK
For the molecule B1, the binding result (in assay [1]; with full length human 5T4 [2]) was “binds” each time.

B2: bsIgG1-huCD3-H101G-FEALx5T4-A1-FEAR (bispecific antibody)
heavy 1: not shown
VL 1: not shown
heavy 2: QIQLVQSGPELKKPGETVKISCKASGYTFTNFGMNWVKQGPGEGLKWMGWINTNTGEPRYAEEFKGRFAFSLETTASTAYLQINNLKNEDTATYFCARDWDGAYFFDYWGQGTTLTVSSASTKGPSVFPLAPSSKSTSGGTAALGCLVKDYFPEPVTVSWNSGALTSGVHTFPAVLQSSGLYSLSSVVTVPSSSLGTQTYICNVNHKPSNTKVDKRVEPKSCDKTHTCPPCPAPEFEGGPSVFLFPPKPKDTLMISRTPEVTCVVVAVSHEDPEVKFNWYVDGVEVHNAKTKPREEQYNSTYRVVSVLTVLHQDWLNGKEYKCKVSNKALPAPIEKTISKAKGQPREPQVYTLPPSREEMTKNQVSLTCLVKGFYPSDIAVEWESNGQPENNYKTTPPVLDSDGSFFLYSRLTVDKSRWQQGNVFSCSVMHEALHNHYTQKSLSLSPGK
VL 2: SIVMTQTPKFLLVSAGDRVTITCKASQSVSNDVAWYQQKPGQSPKLLINFATNRYTGVPNRFTGSGYGTDFTFTISTVQAEDLALYFCQQDYSSPWTFGGGTKLEIK
For B2, the binding result (in assay [3]; with full length human 5T4 [4]) was “binds” each time.
